Assay results published in US11124558B2, “Use of tetranectin and peptide agonists to treat inflammatory diseases” (The Feinstein Institutes for Medical Research, priority 2017, dated 2021).
“Also recorded” adds a separate entry of the source. Non-standard residues stand in square brackets, D forms with d. No end group written: not given here. Nle = CCCC[C@H](N)C(=O)O

B1: P12: Recombinant N-terminal deletion mutant of TN, residue 45-181, carbohydrate recognition domain (CRD), expressed in E. coli, SEQ ID NO:12 (protein, listed as Homo sapiens)
chain: ALQTVCLKGTKVHMKCFLAFTQTKTFHEASEDCISRGGTLGTPQTGSENDALYEYLRQSVGNEAEIWLGLNDMAAEGTWVDMTGARIAYKNWETEITAQPDGGKTENCAVLSGAANGKWFDKRCRDQLPYICQFGIV

Key:
[1] = test system: lethal sepsis (CLP), Balb/C mice; test: Lethal sepsis by cecal ligation and puncture (CLP), survival in mice; assay type: in vivo; conditions: male Balb/C mice, given intraperitoneally, survival monitored more than two weeks
Protocol: FIG. 6A-6C: Recombinant TN protected mice against lethal endotoxemia and sepsis. Male Balb/C mice were subjected to lethal endotoxemia (LPS, 5 mg/kg, i.p., Panel A) or sepsis by cecal ligation and puncture (CLP, Panel B, C), and recombinant TN produced in HEK293 (Panel A, B) or E. coli (Panel C) was given intraperitoneally at indicated dosing regimens. Animal survival rates were monitored for more than two weeks to ensure no later death. Shown in Panel B and C is a summary of two independent experiments with similar results.
FIG. 9: N-terminal deletion TN mutant protected mice against lethal sepsis. Male Balb/C mice were subjected to lethal sepsis by cecal ligation and puncture (CLP), and recombinant deletion mutant (ΔTN) was given intrapeitoneally at indicated dosing regimens. Animal survival rates were monitored for more than two weeks to ensure no later death. Shown was a summary of two independent experiments with similar results.
FIG. 10: TN peptide agonist (P11) protected mice against lethal sepsis. Male Balb/C mice were subjected to lethal sepsis by cecal ligation and puncture (CLP), and TN peptide agonist, (P11, […]) (SEQ ID NO:11) was given intrapeitoneally at indicated dosing regimens. Animal survival rates were monitored for more than two weeks to ensure no later death. Shown was a summary of two independent experiments with N=8-18 animals per group.
FIG. 13A-13B: Tetranectin peptide agonists (P2 and P2-M/Nle) protected mice against lethal sepsis. Male Balb/C mice were subjected to lethal sepsis by cecal ligation and puncture (CLP), and TN peptide agonist, P2 (55-KVHMKCFLAFTQTKTF-70) (13A) (SEQ ID NO:2) or P2-M/Nle (54-TKVH(Nle)KSFLAFTQTKT-69) (13B) (SEQ ID NO:13) was given intraperitoneally at indicated dosing regimens. Animal survival rates were monitored for more than two weeks to ensure no later death. Shown was a summary of independent experiment with N=10 animals per group. The Kaplan-Meier method was used to compare the difference in mortality rates between groups. *, P<0.05 versus “CLP+Vehicle” group.
Effects of TN or peptide agonist on LSI. Balb/C mice (both male and female, 7-8 weeks, 20-25 g) are subjected to lethal endotoxemia or sepsis as described above, and the recombinant TN is injected (i.p.) at various doses and time points (2, 24, and 48 h) after the onset of endotoxemia or sepsis. Their effects on the outcomes of LSI is assessed by comparing the long-term (two-week) survival rates between the TN-treated groups with saline vehicle-treated controls. By varying the time points (e.g., 2, 12, 24 or 36 h) when the first dose of TN will be given to animals, the therapeutic windows for the TN-based therapy is estimated. […] It will be critical to continue these exciting experiments using other dosing regimens to further validate TN's protective role in LSI.
To explore the therapeutic potential of the TN-based strategies, the efficacy of TN-specific peptide agonists that would recapitulate the HMGB1-inhibiting capacities is tested using both animal models of lethal endotoxemia and sepsis. A series of peptide agonists have been designed, and chemically synthesized or biologically expressed as recombinant peptide (Table 1, FIG. 7). Peptide agonists will be given to the endotoxemic or septic mice intraperitoneally at various doses and time points after the onset of endotoxemia or sepsis. Their effects on the outcomes of LSI is assessed by comparing the long-term (two-week) survival rates between the peptide agonist groups and the saline vehicle-treated controls.
TN-specific peptide agonists are tested that would recapitulate the HMGB1-inhibiting capacities using both animal models of lethal endotoxemia and sepsis. Peptide agonists are given to the endotoxemic or septic mice intraperitoneally at various doses and time points after the onset of endotoxemia or sepsis. […]

[2] = test system: GRO/CXCL1 and ENA-78/CXCL5 secretion, HuPBMCs; test: Cytokine/chemokine secretion by HuPBMCs (Cytokine Antibody Arrays); assay type: cell-based; conditions: primary human monocytes / HuPBMCs, TN 20 μg/ml, 16 h
Protocol: Human blood was purchased from the Long Island Blood Bank, and HuPBMCs were isolated by density gradient centrifugation through Ficoll, and stimulated with recombinant TN (20 μg/ml) expressed in HEK293 or E. coli for 16 h. The extracellular levels of cytokines and chemokines were determined by Cytokine Antibody Arrays.
In light of the protective roles of these neutrophil-attracting chemokines, CXCL1/KC [67,68] and CXCL5/ENA-78 [69,70] in LSI, it is important to determine whether TN could modulate leukocyte infiltration to facilitate potential pathogen elimination during sepsis.

HMGB1 release = test: LPS/SAA-induced HMGB1 release, summary statement (cells not specified); assay type: cell-based
[3] = test system: HMGB1 release, murine macrophage-like RAW264.7 cells; test: SAA-induced HMGB1 release in RAW264.7 cells (Western blotting); assay type: cell-based; conditions: 16 h, serum-free OPTI-MEM I
Protocol: Murine macrophage-like RAW264.7 cells were cultured in serum-free OPTI-MEM I medium, and stimulated with SAA in the absence of presence of ΔTN (residue 45-181) for 16 h at the indicated concentrations. The extracellular HMGB1 levels were determined by Western blotting, and expressed as % of stimulation in the presence of SAA alone.

Molecule	protection against lethal sepsis (animal survival) [1]	protection against lethal sepsis (animal survival) ([1]; listed as synthetic peptide corresponding to the plasminogen-binding region (residue 143-1))	release of neutrophil-attracting chemokines (CXCL1/GRO-α/KC and CXCL5/ENA-78) [2]	attenuation of LPS/SAA-induced HMGB1 release (HMGB1 release)	protection against lethal sepsis (animal survival) ([1]; listed as N-terminal deletion mutant of TN)	protection against lethal sepsis (animal survival) ([1]; listed as ΔTN)	inhibition of SAA-induced HMGB1 release [3]	inhibition of SAA-induced HMGB1 release ([3]; listed as ΔTN)
KVHMKCFLAFTQTKTF (listed as Homo sapiens) [Peptide P2]	protected							
QPDGGKTENCAVLSGAANGKWFDKRCRD (listed as Homo sapiens) [Peptide P11]	protected; also recorded: significant protection	dose-dependent and significant protection	specifically stimulated	dose-dependently attenuated				
TKVH(Nle)KSFLAFTQTKT (TKVH[Nle]KSFLAFTQTKT) [P2-M/Nle]	protected							
B1	significant protection		specifically stimulated	dose-dependently attenuated	significant protection	protected	dose-dependently attenuated	dose-dependently inhibited
